In experiment [1] the target is vWF on calcium ionophore-activated HUVEC monolayers (human (endogenous in HUVEC)). Nature of the experiment: bacterial adhesion to cell monolayers (ELISA-type); ionophore-treated HUVEC monolayers incubated for 1 h with S. aureus SH1000 WT or isdB mutant (with or without 250 ng/well mAb 6D1 or isotype control), or with L. lactis with pNZ8037::isdB or empty vector.
For experiment [2], the target named is human von Willebrand factor (human) (UniProt P04275). Nature of the experiment: ELISA; competition: wells coated with 1 μg of vWF, 1 μg of IsdB with or without 10 μg/well of each vWF ligand; detected with anti-IsdB IgG; percent of control without competitor. Background: ELISA stands for enzyme-linked immunosorbent assay.
For experiment [3], the target named is IsdB NEAT1 (aa residues 144-270) (S. aureus SH1000) (UniProt Q2FZF0). Nature of the experiment: SPR; Biacore X-100; 6xHis-IsdB proteins captured on Ni2+-NTA chip, A1 lacking the 6xHis tag as analyte (0.08 to 1.25 μM), single-cycle mode, 25 °C; heterogeneous ligand binding model (two ligand populations L1, L2); buffer PBS with 0.005% Tween 20 or HBS-EP+ (methods). A general note: In SPR one partner is held on a chip, and binding of the other changes the refractive index at the surface.

Experiment [4] addresses IsdB NEAT1-NEAT2 (aa residues 48-480) (S. aureus SH1000) (UniProt Q2FZF0). The description is as above.
Experiment [5] addresses IsdB NEAT2 (aa residues 334-458) (S. aureus SH1000) (UniProt Q2FZF0). Described as above.

Take “IsdB on S. aureus SH1000 cells (from UniProt Q2FZF0 41-613) (natural protein)”: the adhesion of wild-type cells over isdB mutant cells in experiment [1] turned out to be 3 times.

For collagen type IV (complex), in experiment [2], the reduction of IsdB NEAT1-NEAT2 binding to vWF at 10 μg/well came to 50%.

For collagen type VI (complex), the reduction of IsdB NEAT1-NEAT2 binding to vWF at 10 μg/well in experiment [2] worked out at 50%.

Regarding “recombinant vWF A1 domain lacking the 6xHis tag (domain or fragment)”, the KD1 (ligand population L1) turned out to be 53 µM in experiment [3], 1.7 µM in experiment [4] and 0.3 µM in experiment [5]. Further, the results for the KD2 (ligand population L2) in experiment [3], in experiment [4] and in experiment [5] were 5.3 µM, 0.9 µM and 0.4 µM, respectively.

These data come from paper PMC8611056.
